Source: US20180155451A1 (published 2018)

T1: FcγRIIa R (human FcγRIIa, allotype R, Arg at position 131), extracellular domain with C-terminal His tag (human, UniProt P12318 34-217)
T1 construct: extracellular domain; expressed in FreeStyle293 cells; analyte in Biacore; also called 2aR; FcgRIIa R
T1 sequence (looked up): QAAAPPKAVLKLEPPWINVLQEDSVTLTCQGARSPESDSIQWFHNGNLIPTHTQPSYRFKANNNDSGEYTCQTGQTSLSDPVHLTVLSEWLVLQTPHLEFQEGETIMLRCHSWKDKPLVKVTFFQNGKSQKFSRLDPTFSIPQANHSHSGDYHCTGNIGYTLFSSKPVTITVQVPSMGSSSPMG


target: T1, FcγRIIa R (human FcγRIIa, allotype R, …); assay: SPR (Biacore), relative binding vs GpH7-A5/GpH7-B3/GpL16-k0
Experimental: Analysis of interaction between objective antibody and the FcγR was carried out using Biacore T100 (GE Healthcare). HBS-EP+ (GE Healthcare) was used as the running buffer, and the measurement temperature was set to 25° C. Chips produced by immobilizing the antigen peptide by the amine coupling method to a Series S Sencor Chip CM5 (GE Healthcare), or alternatively, chips produced by allowing preliminarily biotinylated antigen peptides to interact with and immobilize onto a Series S Sensor Chip SA (certified) (GE Healthcare) were used. Antibodies of interest were captured onto an antigen peptide-immobilized chip, and allowed to interact to each FcγR diluted with running buffer. To regenerate and repeatedly use the chip, the antibodies captured on the chip were washed off by reacting 10 mM glycine-HCl, pH 1.5.
The FcγR-binding activity of each antibody was assessed primarily using as an indicator the FcγR-binding activity and dissociation constant for FcγR.

| He/Con_2aR | Binder |
| --- | --- |
| 110 relative, control = 100 | GpH7-A5/GpH7-B3 variant T335_13S/GpL16-k0 (antibody, human IgG1, kappa, heterodimerized antibody, mutation in one H chain only; also called He Ab) heavy 1: not shown heavy 2: not shown light: DIVMTQSPLSLPVTPGEPASISCQASESLVHSNRNTYLHWYLQKPGQSPQLLIYKVSNRFSGVPDRFSGSGSGTDFTLKISRVEAEDVGVYYCSQNTHVPPTFGQGTKVEIERTVAAPSVFIFPPSDEQLKSGTASVVCLLNNFYPREAKVQWKVDNALQSGNSQESVTEQDSKDSTYSLSSTLTLSKADYEKHKVYACEVTHQGLSSPVTKSFNRGEC |
| 106 relative, control = 100 | GpH7-A5/GpH7-B3 variant Y296_09D/GpL16-k0 (antibody, human IgG1, kappa, heterodimerized antibody, mutation in one H chain only; also called He Ab) heavy 1: not shown heavy 2: not shown light: DIVMTQSPLSLPVTPGEPASISCQASESLVHSNRNTYLHWYLQKPGQSPQLLIYKVSNRFSGVPDRFSGSGSGTDFTLKISRVEAEDVGVYYCSQNTHVPPTFGQGTKVEIERTVAAPSVFIFPPSDEQLKSGTASVVCLLNNFYPREAKVQWKVDNALQSGNSQESVTEQDSKDSTYSLSSTLTLSKADYEKHKVYACEVTHQGLSSPVTKSFNRGEC |
| 105 relative, control = 100 | GpH7-A5/GpH7-B3 variant Y296_16H/GpL16-k0 (antibody, human IgG1, kappa, heterodimerized antibody, mutation in one H chain only; also called He Ab) heavy 1: not shown heavy 2: not shown light: DIVMTQSPLSLPVTPGEPASISCQASESLVHSNRNTYLHWYLQKPGQSPQLLIYKVSNRFSGVPDRFSGSGSGTDFTLKISRVEAEDVGVYYCSQNTHVPPTFGQGTKVEIERTVAAPSVFIFPPSDEQLKSGTASVVCLLNNFYPREAKVQWKVDNALQSGNSQESVTEQDSKDSTYSLSSTLTLSKADYEKHKVYACEVTHQGLSSPVTKSFNRGEC |
| 108 relative, control = 100 | GpH7-A5/GpH7-B3 variant T335_16H/GpL16-k0 (antibody, human IgG1, kappa, heterodimerized antibody, mutation in one H chain only; also called He Ab) heavy 1: not shown heavy 2: not shown light: DIVMTQSPLSLPVTPGEPASISCQASESLVHSNRNTYLHWYLQKPGQSPQLLIYKVSNRFSGVPDRFSGSGSGTDFTLKISRVEAEDVGVYYCSQNTHVPPTFGQGTKVEIERTVAAPSVFIFPPSDEQLKSGTASVVCLLNNFYPREAKVQWKVDNALQSGNSQESVTEQDSKDSTYSLSSTLTLSKADYEKHKVYACEVTHQGLSSPVTKSFNRGEC |
| 106 relative, control = 100 | GpH7-A5/GpH7-B3 variant T335_19Q/GpL16-k0 (antibody, human IgG1, kappa, heterodimerized antibody, mutation in one H chain only; also called He Ab) heavy 1: not shown heavy 2: not shown light: DIVMTQSPLSLPVTPGEPASISCQASESLVHSNRNTYLHWYLQKPGQSPQLLIYKVSNRFSGVPDRFSGSGSGTDFTLKISRVEAEDVGVYYCSQNTHVPPTFGQGTKVEIERTVAAPSVFIFPPSDEQLKSGTASVVCLLNNFYPREAKVQWKVDNALQSGNSQESVTEQDSKDSTYSLSSTLTLSKADYEKHKVYACEVTHQGLSSPVTKSFNRGEC |
| 111 relative, control = 100 | GpH7-A5/GpH7-B3 variant T335_15Y/GpL16-k0 (antibody, human IgG1, kappa, heterodimerized antibody, mutation in one H chain only; also called He Ab) heavy 1: not shown heavy 2: not shown light: DIVMTQSPLSLPVTPGEPASISCQASESLVHSNRNTYLHWYLQKPGQSPQLLIYKVSNRFSGVPDRFSGSGSGTDFTLKISRVEAEDVGVYYCSQNTHVPPTFGQGTKVEIERTVAAPSVFIFPPSDEQLKSGTASVVCLLNNFYPREAKVQWKVDNALQSGNSQESVTEQDSKDSTYSLSSTLTLSKADYEKHKVYACEVTHQGLSSPVTKSFNRGEC |
| 109 relative, control = 100 | GpH7-A5/GpH7-B3 variant T335_20W/GpL16-k0 (antibody, human IgG1, kappa, heterodimerized antibody, mutation in one H chain only; also called He Ab) heavy 1: not shown heavy 2: not shown light: DIVMTQSPLSLPVTPGEPASISCQASESLVHSNRNTYLHWYLQKPGQSPQLLIYKVSNRFSGVPDRFSGSGSGTDFTLKISRVEAEDVGVYYCSQNTHVPPTFGQGTKVEIERTVAAPSVFIFPPSDEQLKSGTASVVCLLNNFYPREAKVQWKVDNALQSGNSQESVTEQDSKDSTYSLSSTLTLSKADYEKHKVYACEVTHQGLSSPVTKSFNRGEC |
| 150 relative, control = 100 | GpH7-A5/GpH7-B3 variant V266_06M/GpL16-k0 (antibody, human IgG1, kappa, heterodimerized antibody, mutation in one H chain only; also called He Ab) heavy 1: not shown heavy 2: not shown light: DIVMTQSPLSLPVTPGEPASISCQASESLVHSNRNTYLHWYLQKPGQSPQLLIYKVSNRFSGVPDRFSGSGSGTDFTLKISRVEAEDVGVYYCSQNTHVPPTFGQGTKVEIERTVAAPSVFIFPPSDEQLKSGTASVVCLLNNFYPREAKVQWKVDNALQSGNSQESVTEQDSKDSTYSLSSTLTLSKADYEKHKVYACEVTHQGLSSPVTKSFNRGEC |
| 106 relative, control = 100 | GpH7-A5/GpH7-B3 variant T335_18N/GpL16-k0 (antibody, human IgG1, kappa, heterodimerized antibody, mutation in one H chain only; also called He Ab) heavy 1: not shown heavy 2: not shown light: DIVMTQSPLSLPVTPGEPASISCQASESLVHSNRNTYLHWYLQKPGQSPQLLIYKVSNRFSGVPDRFSGSGSGTDFTLKISRVEAEDVGVYYCSQNTHVPPTFGQGTKVEIERTVAAPSVFIFPPSDEQLKSGTASVVCLLNNFYPREAKVQWKVDNALQSGNSQESVTEQDSKDSTYSLSSTLTLSKADYEKHKVYACEVTHQGLSSPVTKSFNRGEC |
| 102 relative, control = 100 | GpH7-A5/GpH7-B3 variant Y296_19Q/GpL16-k0 (antibody, human IgG1, kappa, heterodimerized antibody, mutation in one H chain only; also called He Ab) heavy 1: not shown heavy 2: not shown light: DIVMTQSPLSLPVTPGEPASISCQASESLVHSNRNTYLHWYLQKPGQSPQLLIYKVSNRFSGVPDRFSGSGSGTDFTLKISRVEAEDVGVYYCSQNTHVPPTFGQGTKVEIERTVAAPSVFIFPPSDEQLKSGTASVVCLLNNFYPREAKVQWKVDNALQSGNSQESVTEQDSKDSTYSLSSTLTLSKADYEKHKVYACEVTHQGLSSPVTKSFNRGEC |
| 104 relative, control = 100 | GpH7-A5/GpH7-B3 variant Y296_18N/GpL16-k0 (antibody, human IgG1, kappa, heterodimerized antibody, mutation in one H chain only; also called He Ab) heavy 1: not shown heavy 2: not shown light: DIVMTQSPLSLPVTPGEPASISCQASESLVHSNRNTYLHWYLQKPGQSPQLLIYKVSNRFSGVPDRFSGSGSGTDFTLKISRVEAEDVGVYYCSQNTHVPPTFGQGTKVEIERTVAAPSVFIFPPSDEQLKSGTASVVCLLNNFYPREAKVQWKVDNALQSGNSQESVTEQDSKDSTYSLSSTLTLSKADYEKHKVYACEVTHQGLSSPVTKSFNRGEC |
| 103 relative, control = 100 | GpH7-A5/GpH7-B3 variant Y296_14T/GpL16-k0 (antibody, human IgG1, kappa, heterodimerized antibody, mutation in one H chain only; also called He Ab) heavy 1: not shown heavy 2: not shown light: DIVMTQSPLSLPVTPGEPASISCQASESLVHSNRNTYLHWYLQKPGQSPQLLIYKVSNRFSGVPDRFSGSGSGTDFTLKISRVEAEDVGVYYCSQNTHVPPTFGQGTKVEIERTVAAPSVFIFPPSDEQLKSGTASVVCLLNNFYPREAKVQWKVDNALQSGNSQESVTEQDSKDSTYSLSSTLTLSKADYEKHKVYACEVTHQGLSSPVTKSFNRGEC |
| 100 relative, control = 100 | GpH7-A5/GpH7-B3 variant Y300_18N/GpL16-k0 (antibody, human IgG1, kappa, heterodimerized antibody, mutation in one H chain only; also called He Ab) heavy 1: not shown heavy 2: not shown light: DIVMTQSPLSLPVTPGEPASISCQASESLVHSNRNTYLHWYLQKPGQSPQLLIYKVSNRFSGVPDRFSGSGSGTDFTLKISRVEAEDVGVYYCSQNTHVPPTFGQGTKVEIERTVAAPSVFIFPPSDEQLKSGTASVVCLLNNFYPREAKVQWKVDNALQSGNSQESVTEQDSKDSTYSLSSTLTLSKADYEKHKVYACEVTHQGLSSPVTKSFNRGEC |
| 110 relative, control = 100 | GpH7-A5/GpH7-B3 variant Y296_20W/GpL16-k0 (antibody, human IgG1, kappa, heterodimerized antibody, mutation in one H chain only; also called He Ab) heavy 1: not shown heavy 2: not shown light: DIVMTQSPLSLPVTPGEPASISCQASESLVHSNRNTYLHWYLQKPGQSPQLLIYKVSNRFSGVPDRFSGSGSGTDFTLKISRVEAEDVGVYYCSQNTHVPPTFGQGTKVEIERTVAAPSVFIFPPSDEQLKSGTASVVCLLNNFYPREAKVQWKVDNALQSGNSQESVTEQDSKDSTYSLSSTLTLSKADYEKHKVYACEVTHQGLSSPVTKSFNRGEC |
| 102 relative, control = 100 | GpH7-A5/GpH7-B3 variant Y296_13S/GpL16-k0 (antibody, human IgG1, kappa, heterodimerized antibody, mutation in one H chain only; also called He Ab) heavy 1: not shown heavy 2: not shown light: DIVMTQSPLSLPVTPGEPASISCQASESLVHSNRNTYLHWYLQKPGQSPQLLIYKVSNRFSGVPDRFSGSGSGTDFTLKISRVEAEDVGVYYCSQNTHVPPTFGQGTKVEIERTVAAPSVFIFPPSDEQLKSGTASVVCLLNNFYPREAKVQWKVDNALQSGNSQESVTEQDSKDSTYSLSSTLTLSKADYEKHKVYACEVTHQGLSSPVTKSFNRGEC |
| 101 relative, control = 100 | GpH7-A5/GpH7-B3 variant Y296_06M/GpL16-k0 (antibody, human IgG1, kappa, heterodimerized antibody, mutation in one H chain only; also called He Ab) heavy 1: not shown heavy 2: not shown light: DIVMTQSPLSLPVTPGEPASISCQASESLVHSNRNTYLHWYLQKPGQSPQLLIYKVSNRFSGVPDRFSGSGSGTDFTLKISRVEAEDVGVYYCSQNTHVPPTFGQGTKVEIERTVAAPSVFIFPPSDEQLKSGTASVVCLLNNFYPREAKVQWKVDNALQSGNSQESVTEQDSKDSTYSLSSTLTLSKADYEKHKVYACEVTHQGLSSPVTKSFNRGEC |
| 103 relative, control = 100 | GpH7-A5/GpH7-B3 variant Y296_10E/GpL16-k0 (antibody, human IgG1, kappa, heterodimerized antibody, mutation in one H chain only; also called He Ab) heavy 1: not shown heavy 2: not shown light: DIVMTQSPLSLPVTPGEPASISCQASESLVHSNRNTYLHWYLQKPGQSPQLLIYKVSNRFSGVPDRFSGSGSGTDFTLKISRVEAEDVGVYYCSQNTHVPPTFGQGTKVEIERTVAAPSVFIFPPSDEQLKSGTASVVCLLNNFYPREAKVQWKVDNALQSGNSQESVTEQDSKDSTYSLSSTLTLSKADYEKHKVYACEVTHQGLSSPVTKSFNRGEC |
| 101 relative, control = 100 | GpH7-A5/GpH7-B3 variant Y296_07I/GpL16-k0 (antibody, human IgG1, kappa, heterodimerized antibody, mutation in one H chain only; also called He Ab) heavy 1: not shown heavy 2: not shown light: DIVMTQSPLSLPVTPGEPASISCQASESLVHSNRNTYLHWYLQKPGQSPQLLIYKVSNRFSGVPDRFSGSGSGTDFTLKISRVEAEDVGVYYCSQNTHVPPTFGQGTKVEIERTVAAPSVFIFPPSDEQLKSGTASVVCLLNNFYPREAKVQWKVDNALQSGNSQESVTEQDSKDSTYSLSSTLTLSKADYEKHKVYACEVTHQGLSSPVTKSFNRGEC |
| 109 relative, control = 100 | GpH7-A5/GpH7-B3 variant Y296_04F/GpL16-k0 (antibody, human IgG1, kappa, heterodimerized antibody, mutation in one H chain only; also called He Ab) heavy 1: not shown heavy 2: not shown light: DIVMTQSPLSLPVTPGEPASISCQASESLVHSNRNTYLHWYLQKPGQSPQLLIYKVSNRFSGVPDRFSGSGSGTDFTLKISRVEAEDVGVYYCSQNTHVPPTFGQGTKVEIERTVAAPSVFIFPPSDEQLKSGTASVVCLLNNFYPREAKVQWKVDNALQSGNSQESVTEQDSKDSTYSLSSTLTLSKADYEKHKVYACEVTHQGLSSPVTKSFNRGEC |
